Patent US20190316133, “Anti-Fibrinogen Aptamers and Uses Thereof” (Laboratoire Francais du Fractionnement et des …, published 2019)

Assays:
[1] = molecular target: T1, fibrinogen (transgenic human, from milk of transgenic cows) (Homo sapiens, UniProt P02671-2;P02675;P02679 P02671-2:20-644,P02675:31-491,P02679:27-453); assay: SPR; high affinity; pH-dependent; conditions: tags: none; 97% purity; chain copies: 2
Procedure: (§1) The selected aptamer was synthetized with Biotin and a triethylene glycol spacer at the 5′ end of the oligonucleotide. A 1 μM solution of the aptamer was prepared using the SELEX selection buffer. The aptamer solution was heated to 90° C. for 5 min, incubated on ice for 5 min and equilibrated to room temperature for 10 min. The preparation was injected on a streptavidin coated sensor chip SA of Biacore T200 instrument (GE Healthcare) at a flow rate of 10 μl/min for 7 min. Then, different concentrations of the target were injected to the immobilised aptamer at 30 μl/min for 1 minute. After dissociation for 1-2 min a wash step was performed by injecting a suitable wash buffer at 30 μl/min for 1 min. For elution, a suitable elution buffer was injected at 30 μl/min for 1-2 min. Finally the sensor chip was regenerated by injection of 50 mM NaOH at 30 μl/min for 30 sec. During the course of the experiment the response signal was recorded in a sensorgram.
The core sequences of aptamers SEQ ID NO:1 and SEQ ID NO:58 (namely the minimal sequence binding to fibrinogen) were determined. The aptamer of SEQ ID NO:66 corresponds to the core sequence of aptamer of SEQ ID NO:1. The aptamer of SEQ ID NO:67 is the core sequence of aptamer of SEQ ID NO:58. FIGS. 3A-3D show the binding profile obtained for the core sequences of aptamers of SEQ ID NO:1 and NO:58 by SPR. […]

[2] = molecular target: T1, fibrinogen (transgenic human, from milk …); assay: SPR; dose-dependent 125-1000 nM at pH 6.3; not eluted by 1 M NaCl; released at pH 7.4 with 2 M MgCl2; conditions: tags: none; 97% purity; chain copies: 2; label: 5' biotin-triethylene glycol
Procedure: (§2) Each solution of transgenic fibrinogen was injected at pH 6.3 whereby a complex was formed in a dose-dependent manner as evidenced by the increase of the signals depending on the concentration of fibrinogen. […] Fibrinogen was then released from the complex by an elution buffer at pH 7.40 and containing MgCl₂ at 2M. The solid support was then regenerated by injecting a solution of NaOH at 50 mM. X-axis: time in s. Y-axis: SPR response in arbitrary scale.
as §1, with “Finally the sensor chip was regenerated by injection of 50 mM NaOH at 30 μl/min for 30 sec.” left out

[3] = molecular target: T1, fibrinogen (transgenic human, from milk …); assay: SPR; dose-dependent 125-1000 nM at pH 6.3; not eluted by 0.5 M NaCl; released at pH 7.4; conditions: tags: none; 97% purity; chain copies: 2; label: 5' biotin-triethylene glycol
Procedure: as §2, with “7.40.” for “7.40 and containing MgCl₂ at 2M.”, “scale” for “scale.”
as §1

[4] = molecular target: T1, fibrinogen (transgenic human, from milk …); assay: SPR; high affinity stated; conditions: tags: none; 97% purity; chain copies: 2; label: 5' biotin-triethylene glycol
Procedure: as §1

T1 sequence (P02671 other isoform, or with tags, fused parts or gaps, chain 1 of 3): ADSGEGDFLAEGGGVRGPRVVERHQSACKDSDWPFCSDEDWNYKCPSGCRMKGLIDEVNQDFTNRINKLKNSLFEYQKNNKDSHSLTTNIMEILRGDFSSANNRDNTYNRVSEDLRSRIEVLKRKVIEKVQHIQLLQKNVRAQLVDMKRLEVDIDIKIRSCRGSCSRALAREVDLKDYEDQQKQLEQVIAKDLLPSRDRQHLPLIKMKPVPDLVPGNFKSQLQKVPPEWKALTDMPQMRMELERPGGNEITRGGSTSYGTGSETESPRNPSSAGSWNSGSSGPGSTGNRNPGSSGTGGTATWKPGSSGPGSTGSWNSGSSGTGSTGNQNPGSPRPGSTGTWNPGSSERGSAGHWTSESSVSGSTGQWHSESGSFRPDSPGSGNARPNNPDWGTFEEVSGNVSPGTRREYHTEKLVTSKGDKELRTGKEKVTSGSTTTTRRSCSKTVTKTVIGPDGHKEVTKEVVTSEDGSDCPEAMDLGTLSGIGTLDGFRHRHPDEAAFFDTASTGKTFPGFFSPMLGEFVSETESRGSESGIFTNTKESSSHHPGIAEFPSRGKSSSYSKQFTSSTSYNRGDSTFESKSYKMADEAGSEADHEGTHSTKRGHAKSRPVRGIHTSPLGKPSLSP
T1 sequence (P02675 31-491, chain 2 of 3): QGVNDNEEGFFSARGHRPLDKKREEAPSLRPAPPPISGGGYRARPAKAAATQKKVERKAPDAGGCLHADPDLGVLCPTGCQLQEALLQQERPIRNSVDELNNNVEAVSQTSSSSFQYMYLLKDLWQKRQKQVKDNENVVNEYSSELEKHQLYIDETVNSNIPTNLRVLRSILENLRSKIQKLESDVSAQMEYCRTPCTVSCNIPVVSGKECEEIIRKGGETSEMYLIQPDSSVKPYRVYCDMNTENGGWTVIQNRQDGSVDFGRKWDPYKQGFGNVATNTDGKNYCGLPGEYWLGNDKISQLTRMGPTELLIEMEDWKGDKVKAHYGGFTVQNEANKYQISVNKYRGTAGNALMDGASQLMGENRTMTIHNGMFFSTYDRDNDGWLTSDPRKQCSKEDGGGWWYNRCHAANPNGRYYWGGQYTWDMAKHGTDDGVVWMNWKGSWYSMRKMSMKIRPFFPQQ
T1 sequence (P02679 27-453, chain 3 of 3): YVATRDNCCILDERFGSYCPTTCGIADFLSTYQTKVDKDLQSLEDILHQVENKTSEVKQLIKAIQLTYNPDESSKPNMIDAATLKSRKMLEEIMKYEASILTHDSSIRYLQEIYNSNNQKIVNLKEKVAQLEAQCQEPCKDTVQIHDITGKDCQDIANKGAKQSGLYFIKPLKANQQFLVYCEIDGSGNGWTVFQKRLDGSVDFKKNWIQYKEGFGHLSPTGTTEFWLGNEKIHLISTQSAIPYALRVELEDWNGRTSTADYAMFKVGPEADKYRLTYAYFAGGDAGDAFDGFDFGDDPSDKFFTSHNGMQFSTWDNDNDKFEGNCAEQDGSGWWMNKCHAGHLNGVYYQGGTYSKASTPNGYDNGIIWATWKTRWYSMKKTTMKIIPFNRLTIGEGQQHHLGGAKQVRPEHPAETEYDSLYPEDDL

Binder	binding result [1]	binding result [4]	further results
SEQ ID NO:58 aptamer (ssDNA) DNA: GGGTCAATGCCAGGTCTCAACTTTCGCGTGTGGTTGGTAGGGCTAGGTGTATACGCATATCGGCTCGCAAGCAGTC	binds	–	–
CGCGTGTGGTTGGTAGGGCTAGGTGTATACGCAT (ssDNA) [A5-2.9 (core of SEQ ID NO:58)]	–	–	binding result [2]: binds
A5-1.9 (core of SEQ ID NO:1) (ssDNA) DNA: GGGTCAATGCCAGGTCTCGGACCTGGAATCCGCCACCCGCATTAGAACCAGGGTTGAC	–	–	binding result [3]: binds
SEQ ID NO:60 aptamer (ssDNA) DNA: GGGTCAATGCCAGGTCTCTGCGTACTTATCTCGATGTGGTTGGTAGGGATAGGTGTATATCGGCTCGCAAGCAGTC	–	binds	–
SEQ ID NO:65 aptamer (ssDNA) DNA: GGGTCAATGCCAGGTCTCGAGCCGGTGTTGTGTTATGTTGGTAGGGAAGGTGTATAATATCGGCTCGCAAGCAGTC	–	binds	–
SEQ ID NO:1 aptamer (ssDNA) DNA: GGGTCAATGCCAGGTCTCGGACCTGGAATCCGCCACCCGCATTAGAACCAGGGTTGACATCGGCTCGCAAGCAGTC	binds	–	–
